These results are taken from patent US20250236663A1.

Test [1] deals with Recombinant human FAM19A5 protein (His-tagged) (human) (UniProt Q7Z5A7). Nature of the test: OCTET (BLI), His-tagged FAM19A5 on Ni-NTA biosensors, antibody at 1.1-300 nM.
Test [2] shares this target. Nature of the test: ELISA, N'-Term His. The arrangement: unit not given here. On the technique in general: In an ELISA, binding on a coated surface is turned into a signal by an enzyme label.
For test [3] the target is unchanged. Nature of the test: ELISA, N'-Term His; R² 0.9692.
Test [4] has the same target. Nature of the test: two-site sandwich ELISA, capture antibody 13B4; O.D. 0.2 / 0.18 / 0.18 at antigen 100 / 10 / 0 (ng/mL); grey box.
Test [5] has the same target. Nature of the test: two-site sandwich ELISA, capture antibody 3-2; O.D. 2.02 / 1.81 / 0.13 at antigen 100 / 10 / 0 (ng/mL); white box.
Test [6] shares this target. Nature of the test: two-site sandwich ELISA, capture antibody 2-13; O.D. 1.83 / 2.04 / 0.29 at antigen 100 / 10 / 0 (ng/mL); white box.
Test [7] has the same target. Nature of the test: two-site sandwich ELISA, capture antibody P2-A03; O.D. 0.09 / 0.09 / 0.09 at antigen 100 / 10 / 0 (ng/mL); grey box.
Test [8] shares this target. Nature of the test: two-site sandwich ELISA, capture antibody 1-65; O.D. 1.25 / 0.2 / 0.12 at antigen 100 / 10 / 0 (ng/mL); grey box but for the cell of 100.
Test [9] shares this target. Nature of the test: ELISA, N'-Term His; R² 0.9746.
For test [10] the target is unchanged. Nature of the test: two-site sandwich ELISA, capture antibody 1-65; O.D. 0.16 / 0.15 / 0.15 at antigen 100 / 10 / 0 (ng/mL); grey box.
The target is the same in test [11]. Nature of the test: two-site sandwich ELISA, capture antibody 13B4; O.D. 0.27 / 0.22 / 0.22 at antigen 100 / 10 / 0 (ng/mL); grey box.
For test [12] the target is unchanged. Nature of the test: two-site sandwich ELISA, capture antibody 3-2; O.D. 1.91 / 1.66 / 0.16 at antigen 100 / 10 / 0 (ng/mL); white box.
For test [13] the target is unchanged. Nature of the test: two-site sandwich ELISA, capture antibody 2-13; O.D. 1.88 / 1.72 / 0.22 at antigen 100 / 10 / 0 (ng/mL); white box.
The target is the same in test [14]. Nature of the test: two-site sandwich ELISA, capture antibody P2-F11; O.D. 0.15 / 0.15 / 0.14 at antigen 100 / 10 / 0 (ng/mL); grey box.
The target is the same in test [15]. Nature of the test: ELISA, N'-Term His; R² 0.9813.
The target is the same in test [16]. Nature of the test: ELISA, N'-Term His; R² -0.2016.
For test [17] the target is unchanged. Nature of the test: ELISA, N'-Term His; R² 0.8823.
Test [18] shares this target. Nature of the test: two-site sandwich ELISA, capture antibody 3-2; O.D. 1.7 / 0.3 / 0.13 at antigen 100 / 10 / 0 (ng/mL); white box.
Test [19] shares this target. Nature of the test: two-site sandwich ELISA, capture antibody 1-65; O.D. 0.12 / 0.12 / 0.12 at antigen 100 / 10 / 0 (ng/mL); grey box.
For test [20] the target is unchanged. Nature of the test: two-site sandwich ELISA, capture antibody 2-13; O.D. 1.92 / 0.65 / 0.21 at antigen 100 / 10 / 0 (ng/mL); white box.
Test [21] shares this target. Nature of the test: two-site sandwich ELISA, capture antibody P2-A03; O.D. 0.15 / 0.16 / 0.14 at antigen 100 / 10 / 0 (ng/mL); grey box.
Test [22] shares this target. Nature of the test: two-site sandwich ELISA, capture antibody P2-F11; O.D. 0.14 / 0.16 / 0.15 at antigen 100 / 10 / 0 (ng/mL); grey box.
The target is the same in test [23]. Nature of the test: ELISA, N'-Term His; R² 0.9105.
For test [24] the target is unchanged. Nature of the test: ELISA, N'-Term His; R² 0.9329.

As a reminder, the Kd is the free concentration of one partner at which half of the binding sites on the other are occupied at equilibrium, for simple one-to-one binding.

B1: Anti-FAM19A5 (15A9) (antibody, V domains shown)
VH: QVQLQESGPGLVKPSETLSLTCTVSGGSISSYYWSWIRQPPGKGLEWIGYIYPSGSTNYNPSLKSRVTISVDTSKNQFSLNLKSVTAVDTAVYYCARVNPFGYYYAMDVWGQGTTVTVSS
VL: DIQMTQSPSSLSASVGDRITISCRASQSISTSLNWYQQTPGKAPRLLIYGASTLQSGVPSRFSGGGSGTDFSLTITSLQPEDFATYYCQESASIPRTFGQGTKLDIK
Regarding B1, in [1], the Kd is 5.95 nM.

B2: Anti-FAM19A5 (P2-F11) (antibody, V domains shown)
VH: QEQLVESGGRLVTPGTTLTLTCTVSGFSLSSYGVSWVRQAPGKGLEWIGYIANNYNPHYASWAKGRFTISKTSSTTVDLKMTSLTTEDTATYFCARDNYGMDPWGPGTLVTVSS
VL: ELDLTQTPSSVSAAVGGTVTINCQASQSVYNNKNLAWYQQKPGQPPKLLIYAASTLASGVSSRFKGSGSGTQFTLTISDVQCDDAATYYCQGEFSCSSADCNAFGGGTELEIL
B2: the Bmax in test [2] was 3.26. In test [3], the Kd is 0.41 nM. Further, the S/N in test [4] worked out at 1; in test [5], 13.9; in [6], 7; in test [7], 1; in test [8] it was 1.7.

B3: Anti-FAM19A5 (P2-F07) (antibody, V domains shown)
VH: QSLEESGGRLVTPGTPLTLTCTASGFSLSSYYMNWVRQAPGKGLEWIGIIYPSGTTYYAGWAKGRFTISKTSTTVDLKITSPTSEDTATYFCARTVSGYFDIWGPGTLVTVSL
VL: ELDLTQTPPSLSASVGGTVTINCLASEDIYSALAWYQQKPGKPPTLLISGTSNLESGVPPRFSGSGSGTDYTLTIGGVQAEDAATYFCQGYSSYPLTFGAGTNVEIK
Turning to B3, in [2], the Bmax is 0.134.

B4: Anti-FAM19A5 (P2-A03) (antibody, V domains shown)
VH: QSVEESGGRLVTPGTPLTLTCTVSGFSLNNYDMSWVRQAPGKGLEYIGFMDTDGSAYYATWAKGRFTISRTSTTVDLKMTSPTTEDTATYFCARRGSSYYGGIDIWGPGTPVTVSL
VL: ELDLTQTPASVSEPVGGTVTIKCQASQSIGGNLAWYQQKPGQPPKLLIYRASTLASGVPSRFKGSGSGTDFTLTISDLECADAATYYCQSPAYDPAAYVGNAFGGGTELEIL
Take B4: the Bmax in test [2] worked out at 3.37. Also, the Kd in [9] worked out at 0.61 nM. In addition, the S/N is 1 in [10]; 1 in test [11]; 10 in test [12]; 7.8 in [13]; 1.1 in test [14].

B5: P1-A03 (antibody, V domains shown)
VH: QSVEESGGRLVTPGTPLTLTCTVSGFSLSSDYMSWVRQAPGEGLEWIGIIYPSTTTYYASWAKGRFTISKTSSTTVELKMTSLTTEDTATYFCARGSNWSSGMNLWGPGTLVTVSS
VL: ELVMTQTPPSLSASVGETVRIRCLASEDIYSGISWYQQKPEKPPTLLISGASNLESGVPPRFSGSGSGTDYTLTIGGVQAEDAATYYCLGGYSYSSTGLTFGAGTNVEIK
In the case of B5, in [2], the Bmax was found to be 2.45. For the same molecule, the Kd in [15] amounted to 7.5 nM.

B6: Anti-FAM19A5 (P1-A08) (antibody, V domains shown)
VH: QSLEESGGRLVTPGTPLTLTCTASGFSLSTYYMSWVRQAPGKGLEWIGIVYPSGTTYYANWAKGRFTISTASTTVDLMITSPTTEDTATYFCARGDSFGYGLWGPGTLVTVSS
VL: ELVLTQSPSVQVNLGQTVSLTCTADTLSRSYASWYQQKPGQAPVLLIYRDTSRPSGVPDRFSGSSSGNTATLTISGAQAGDEADYYCATSDGSGSNYQYVFGGGTQLTVT
On to B6, for which the Bmax in test [2] was 0.479. Besides, in test [16], the Kd is 6.95 nM.

B7: Anti-FAM19A5 (P1-F02) (antibody, V domains shown)
VH: QSLEESGGRLVTPGTPLTLTCTASGFSLSNYYMGWVRQAPGEGLEWIGIIYASGSTYYASWAKGRFTISKTSTTVDLKMTSLTTEDTATYFCARIDIGVGDYGWAYDRLDLWGQGTLVTVSS
VL: ELDMTQTPPSLSASVGETVRIRCLASEDIYSGISWYQQKPGKPPTLLIYGASNLESGVPPRFSGSGSGTDYTLTIGGVQAEDAATYYCLGGYSYSSITFGAGTNVEIK
Regarding B7, in [2], the Bmax came out at 0.172.

B8: Anti-FAM19A5 (13B4) (antibody, V domains shown)
VH: QVQLQESGPGLVKPSGTLSLNCAVSGGSISSSNWWSWVRQPPGKGLEWIGEIYHGGTTNYNPSLKGRVTMSVDKTKNQFSLRLSSVTAVDTAVYYCARWQLVGGLDVWGQGTTVTVSS
VL: SYELTQPLSVSVSPGQTASITCSGDKLGNVYASWYQQKPGQSPTLVIYQDNKRPSGIPERFSGSNSGKTATLTISGTQALDEADYYCQAWDSSTAVFGGGTKLTVL
Regarding B8, the Bmax in test [2] came out at 2.84. For the same molecule, the Kd amounted to 1.06 nM in [17] and 3.6 nM in test [1]. Also, the S/N in test [18] amounted to 2.3; in test [19] it was 1; in test [20] it was 3.1; in test [21], 1.1; in [22], 1.1.

B9: Anti-FAM19A5 (P2-A01) (antibody, V domains shown)
VH: QEQLVESGGRLVTPGTPLTLSCTASGFFLSGYYMSWVRQAPGKGLEWIGIIYPSGSTDYASWAKGRFTISKTSTTVDLKITTPTTEDTATYFCARVAGYVGYGYETFFDIWGPGTLVTVSL
VL: ELVMTQTPPSLSASVGETVRIRCLASEDIYSGISWYQQKPGKPPTLLIYGASNLESGVPPRFSGSGSGSDYTLTIGGVQAEDAATYYCLGGVTYSSTGTHLTFGAGTNVEIK
In the case of B9, in [2], the Bmax came to 1.19. The Kd in [23] is 9.09 nM.

B10: Anti-FAM19A5 (13F7) (antibody, V domains shown)
VH: QVQLQEWGAGLLKPSETLSLTCAINAESFNGYSWTWIRQTPGKGLEWIGEISHFGSANYNPSLKSRATISADKSKNQFSLKLTSVTAVDTAVYYCARALRGTYSRFYYGMDVWGQGTTVTVSS
VL: DIVMTQTPLSLPVAPGEPASISCRSSQSLLHSNGYNYLDWYVQKPGQPPQLLIYLGSNRASGVPDRFSGSGSGTDFTLKISRVEAEDVGVYYCMQARQTPLTFGGGTKVEIK
On to B10, for which, in [2], the Bmax was found to be 3.04. The Kd in test [24] was 2.77 nM; in test [1], 0.25 nM.
